Experimental findings from PMC5655542, “HpARI Protein Secreted by a Helminth Parasite Suppresses Interleukin-33” (Immunity, 2017) are described below.

The target in this experiment is T1, H. polygyrus Alarmin Release Inhibitor (HpARI), recombinant mature 6-His and Myc-tagged protein (Heligmosomoides polygyrus).
T1 construct: HpARI, Heligmosomoides polygyrus; 251-aa protein including a 16-aa signal peptide; the mature protein (26 kDa, three CCP-like modules) was expressed; the CCP1/2 construct starts at amino acid 17; Codon-optimised synthetic gene cloned with AscI and NotI into pSecTAG2A; also called candidate D; not shown: myc, C-terminal, kept; His6, C-terminal, kept
T1 sequence (A0A3P7XL18 63-297): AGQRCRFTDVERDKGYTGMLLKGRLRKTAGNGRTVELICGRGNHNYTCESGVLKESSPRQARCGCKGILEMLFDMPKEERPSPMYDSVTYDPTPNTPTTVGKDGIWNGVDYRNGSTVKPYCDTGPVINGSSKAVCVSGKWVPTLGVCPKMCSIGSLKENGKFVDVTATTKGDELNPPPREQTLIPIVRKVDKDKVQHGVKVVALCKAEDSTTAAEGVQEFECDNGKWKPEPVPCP
Briefly: SPR; BIAcore T200; HpARI captured via its 6-His tag on a Ni2+-NTA chip to 400 RU; cytokine injected (mIL-33 6.2-167 nM, hIL-33 0.062-1.67 μM); 25°C; 10 mM NaH2PO4 pH 7.5, 150 mM NaCl, 50 μM EDTA, 0.05% surfactant P20; single kinetic titration, global 1:1 fit. As to conditions: both partners purified.

B1: recombinant murine IL-33, untreated (reduced, active form) (ligand)
chain: SIQGTSLLTQSPASLSTYNDQSVSFVLENGCYVINVDDSGKDQEQDQVLLRYYESPCPASQSGDGVDGKKLMVNMSPIKDTDIWLHANDKDYSVELQRGDVSPPEQAFFVLHKKSSDFVSFECKNLPGTYIGVKDNQLALVEEKDESCNNIMFKLSKI
modifications: reduced (free cysteines, no disulfides), active form; limits not given, taken as the usual commercial mature mouse IL-33 (Ser109-Ile266, UniProt chain 109-266)
Consider B1, for which the Kd came out at 0.56 ± 0.1 nM and the “stoichiometry N” value is 1.
